Source: patent US6337206B1 (priority 1997, dated 2002)
Like-named read-outs stand apart in the source and are kept apart here. Each block holds one molecule with its values, some of them ahead of it. No end group written: not given here.

How the values were obtained:
galanin receptors = conditions: hypothalamus, ventral hippocampus, basal forebrain, spinal cord, pancreas, pituitary; read-out: Kd of specific binding; cited from earlier work
rat GALR1 [1] = molecular target: T1, rat GALR1 (Rattus norvegicus, UniProt Q62805); assay: biochemical
T1 sequence (Q62805 1-346): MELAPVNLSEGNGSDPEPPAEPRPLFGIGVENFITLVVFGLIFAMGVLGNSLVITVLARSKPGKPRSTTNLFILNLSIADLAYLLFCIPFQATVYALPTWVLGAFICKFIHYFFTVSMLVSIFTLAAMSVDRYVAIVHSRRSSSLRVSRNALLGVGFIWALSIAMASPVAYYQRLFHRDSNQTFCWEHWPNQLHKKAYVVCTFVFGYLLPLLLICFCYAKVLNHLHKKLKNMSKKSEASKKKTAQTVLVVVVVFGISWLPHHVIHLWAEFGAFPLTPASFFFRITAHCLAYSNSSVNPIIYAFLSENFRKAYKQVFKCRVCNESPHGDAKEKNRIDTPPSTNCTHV

rat GALR2 (clone 27A) [2] = molecular target: T2, rat GALR2 (clone 27A) (Rattus norvegicus, UniProt O08726); assay: biochemical
T2 sequence (O08726 1-372): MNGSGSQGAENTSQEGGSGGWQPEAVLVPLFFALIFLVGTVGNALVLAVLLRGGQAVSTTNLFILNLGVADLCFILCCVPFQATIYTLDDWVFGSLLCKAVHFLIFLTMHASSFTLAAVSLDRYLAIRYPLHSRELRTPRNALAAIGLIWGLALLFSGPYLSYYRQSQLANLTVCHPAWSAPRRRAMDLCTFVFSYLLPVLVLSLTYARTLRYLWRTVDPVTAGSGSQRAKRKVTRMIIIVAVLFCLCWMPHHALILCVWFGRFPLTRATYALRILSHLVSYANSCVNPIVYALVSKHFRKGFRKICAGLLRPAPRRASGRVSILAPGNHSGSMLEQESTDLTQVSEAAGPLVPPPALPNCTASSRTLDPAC

rat GALR2 (clone 27A) [3] = molecular target: T2, rat GALR2 (clone 27A)
rat GALR1 [4] = molecular target: T1, rat GALR1
human GALR2 [5] = molecular target: T3, human GALR2 (Homo sapiens, UniProt O43603); assay: Aequorin bioluminescence assay in 293-AEQ17 cells, human GALR2; assay type: cell-based; conditions: read-out: EC50, aequorin bioluminescence; human GALR2 in 293-AEQ17 cells
T3 construct: expressed in transfected cells; host or cells: 293-AEQ17 (aequorin-expressing 293 line)
T3 sequence (O43603 1-387): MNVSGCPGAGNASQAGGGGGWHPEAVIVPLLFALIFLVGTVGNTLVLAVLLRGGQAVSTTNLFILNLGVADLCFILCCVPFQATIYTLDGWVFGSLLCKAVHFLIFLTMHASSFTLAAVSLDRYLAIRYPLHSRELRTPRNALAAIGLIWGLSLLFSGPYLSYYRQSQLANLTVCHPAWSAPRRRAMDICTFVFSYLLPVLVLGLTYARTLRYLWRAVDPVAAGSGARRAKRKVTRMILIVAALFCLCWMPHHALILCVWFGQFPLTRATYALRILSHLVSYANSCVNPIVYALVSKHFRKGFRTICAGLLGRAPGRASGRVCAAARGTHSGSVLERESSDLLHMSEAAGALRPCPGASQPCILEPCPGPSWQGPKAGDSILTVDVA

rat GALR2 = rat GALR2 (UniProt O08726); assay: competition
hGALR2 [6] = molecular target: hGALR2 (UniProt O43603); assay: competition
hGALR1* (human) = hGALR1* (human) (UniProt P47211); assay: competition
Chain of hGALR1* (human) (P47211 whole entry): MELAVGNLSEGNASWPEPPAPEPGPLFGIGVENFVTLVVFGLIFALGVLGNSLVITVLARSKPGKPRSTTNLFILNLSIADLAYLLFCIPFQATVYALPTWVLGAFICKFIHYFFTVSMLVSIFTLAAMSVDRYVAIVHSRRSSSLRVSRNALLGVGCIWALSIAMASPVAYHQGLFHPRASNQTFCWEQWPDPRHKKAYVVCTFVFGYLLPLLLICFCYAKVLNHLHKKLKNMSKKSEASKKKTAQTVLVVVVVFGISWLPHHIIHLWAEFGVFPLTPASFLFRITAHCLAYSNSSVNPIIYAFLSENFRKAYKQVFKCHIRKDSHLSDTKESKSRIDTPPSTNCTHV

rat GALR1 [7] = molecular target: T4, rat GALR1 (rat, UniProt Q62805 1-346); assay: competition of 125I-human galanin binding, membranes
T4 sequence: T1 sequence (Q62805 1-346)

hGALR2 [8] = molecular target: hGALR2 (UniProt O43603); assay: cell-based or functional assay
rat GALR2 (clone 27A) [9] = molecular target: T5, rat GALR2 (clone 27A) (rat, UniProt O08726 1-372); assay: competition of 125I-human galanin binding, COS-7 membranes
T5 construct: Full-length 372-amino-acid receptor expressed in transiently transfected COS-7 cells; also called pCI.neo/27A
T5 sequence: T2 sequence (O08726 1-372)

human GALR2 [10] = molecular target: T6, human GALR2 (UniProt O43603 1-387); assay: 125I-human galanin competition binding
T6 chain: T3 sequence (O43603 1-387)

human GALR2 [11] = molecular target: T7, human GALR2 (human, UniProt O43603 1-387); assay: cell-based or functional assay
T7 sequence: T3 sequence (O43603 1-387)

Molecule: 125I-galanin
Kd (galanin receptors): ~1 nM

Molecule: CC(C)C[C@H](NC(=O)[C@H](CC(C)C)NC(=O)[C@@H](Cc1c[nH]c2ccccc12)NC(=O)[C@H](Cc1ccccc1)NC(=O)[C@@H](Cc1c[nH]c2ccccc12)NC(=O)[C@H](CCC(N)=O)NC(=O)[C@H](CCC(N)=O)NC(=O)[C@@H]1CCCN1C(=O)[C@H](CCCCN)NC(=O)[C@@H]1CCCN1C(=O)[C@@H](CCCNC(=N)N)NC(=O)[C@@H]1CCCN1C(=O)CNC(=O)[C@H](CC(C)C)NC(=O)[C@H](CC(C)C)NC(=O)[C@H](Cc1ccc(O)cc1)NC(=O)CNC(=O)[C@H](C)NC(=O)[C@H](CO)NC(=O)[C@H](CC(N)=O)NC(=O)[C@H](CC(C)C)NC(=O)[C@@H](NC(=O)[C@H](Cc1c[nH]c2ccccc12)NC(=O)CN)[C@@H](C)O)C(N)=O [C7]
IC50 (rat GALR1 [1]): 4.9 ± 3 nM | IC50 (rat GALR2 (clone 27A) [2]): 23 ± 13 nM

Molecule: CC[C@H](C)[C@H](NC(=O)[C@H](C)NC(=O)[C@H](Cc1c[nH]cn1)NC(=O)[C@@H]1CCCN1C(=O)CNC(=O)[C@H](CC(C)C)NC(=O)[C@H](CC(C)C)NC(=O)[C@H](Cc1ccc(O)cc1)NC(=O)CNC(=O)[C@H](C)NC(=O)[C@H](CO)NC(=O)[C@H](CC(N)=O)NC(=O)[C@H](CC(C)C)NC(=O)[C@@H](N)[C@@H](C)O)C(=O)N[C@@H](CC(=O)O)C(=O)N[C@@H](CC(N)=O)C(=O)N[C@@H](Cc1c[nH]cn1)C(=O)N[C@@H](CCCNC(=N)N)C(=O)N[C@@H](CO)C(=O)N[C@@H](Cc1ccccc1)C(=O)N[C@@H](CO)C(=O)N[C@@H](CC(=O)O)C(=O)N[C@@H](CCCCN)C(=O)N[C@@H](Cc1c[nH]cn1)C(=O)NCC(=O)N[C@@H](CC(C)C)C(=O)N[C@H](C(N)=O)[C@@H](C)O [rat Gal (3-29)]
IC50 (rat GALR2 (clone 27A) [3]): > 1000 nM | IC50 (rat GALR1 [4]): > 1000 nM | EC50 (human GALR2 [5]): > 10000 nM

Molecule: M35 (peptide)
IC50 (rat GALR1 [7]): 0.9 nM | EC50, aequorin bioluminescence in 293-AEQ17 cells (hGALR2 [8]): 44 nM | IC50 (rat GALR2 (clone 27A) [9]): 0.43 nM

Molecule: M40
IC50 (rat GALR2): 1.8 nM | IC50 (hGALR2 [6]): 9.5 nM | IC50 (hGALR1* (human)): 0.48 nM

Molecule: M40 (peptide)
IC50 (rat GALR1 [7]): 0.01 nM | EC50, aequorin bioluminescence in 293-AEQ17 cells (hGALR2 [8]): 8.8 nM | IC50 (rat GALR2 (clone 27A) [9]): 1.9 nM

Molecule: galantide(M15) (peptide)
IC50 (rat GALR1 [7]): 1 nM

Molecule: TLNSAGYLLGPHAIDNHRSFSDKHGLT [rat Gal (3-29)]
IC50 (human GALR2 [10]): > 1000 nM | EC50, aequorin bioluminescence in 293-AEQ17 cells (human GALR2 [11]): > 10000 nM

More lines, now with the values ahead:

IC50 (rat GALR2): 13.5 nM | IC50 (hGALR2 [6]): 40.5 nM | IC50 (hGALR1* (human)): 6.3 nM
Molecule: C7

IC50 (hGALR2 [6]): 5.6 nM | IC50 (hGALR1* (human)): 0.04 nM
Molecule: M35

IC50 (rat GALR1 [7]): 0.86 nM
Molecule: GWTLNSAGYLLGPHAVGNH (peptide, UniProt P22466 33-51, looked up, range 1-19; also called hGal (1-19)) [human Gal (1-19)]

IC50 (human GALR2 [10]): 1.6 nM
Molecule: GWTLNSAGYLLGPHAIDNHRSFSDKHGLT (ends and bridges not checked) [rat galanin]

IC50 (human GALR2 [10]): 15.4 nM | IC50 (rat GALR2 (clone 27A) [9]): 2.9 nM | EC50, aequorin bioluminescence in 293-AEQ17 cells (human GALR2 [11]): 31 nM
Molecule: WTLNSAGYLLGPHAIDNHRSFSDKHGLT (peptide, UniProt P10683 34-61, looked up, range 2-29; also called rGAL(2-29)) [rat Gal (2-29)]
